Molecular target: minke whale ACE2, mFc-tagged (minke whale)
Experiment: SPR

SARS-CoV-2 Omicron BA.1 receptor-binding domain (RBD) (from UniProt P0DTC2) (domain or fragment)
Kd: 254 nM

Reference: paper PMC9517163
